From patent US20240374719A1 (BIOINVENT INTERNATIONAL, published 2024)
Positions count from the first letter of the chain named.

Columns and labels:
cmCTLA-4 = molecular target: T1, cmCTLA-4 (Macaca fascicularis, UniProt G7PL88); assay: ELISA, luminescence: antigen coated, antibody titrated [contd.) E]
T1 construct: recombinant protein coated for ELISA; also called cynomolgus CTLA-4; cynomolgus monkey CTLA-4

[1] = molecular target: T2, human CD28-Fc (R&D Systems) (human, UniProt P10747 19-152); assay: as above
T2 construct: Bought reagent; also called human homologue CD28; not shown: Fc part of the bought fusion protein; not described

[2] = molecular target: T3, human CTLA4-Fc (R&D Systems) (human, UniProt P16410 36-161); assay: as above
T3 construct: extracellular domain; Bought reagent; also called rhCTLA-4-Fc; hCTLA-4; not shown: Fc part of the bought fusion protein; not described
T3 sequence (P16410 36-161): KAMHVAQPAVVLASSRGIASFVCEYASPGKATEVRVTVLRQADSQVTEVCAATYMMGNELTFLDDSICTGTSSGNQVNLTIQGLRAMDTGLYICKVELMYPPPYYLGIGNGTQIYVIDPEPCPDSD

[3] = molecular target: T4, mouse CTLA4-Fc (Sino Biological) (mouse, UniProt P09793 36-162, limits assumed); assay: as above
T4 construct: Bought reagent; also called mouse CTLA-4 protein; recombinant CTLA-4; not shown: Fc part of the bought fusion protein; not described

[4] = molecular target: T5, human CTLA-4 protein (Sino Biological), soluble (human, UniProt P16410 36-162, limits assumed); assay: SPR (Biacore 3000); mAb captured by immobilised anti-human Fc, soluble human CTLA-4 injected (1.6 to 50 nM)
T5 construct: Analyte of the Biacore experiment; also called soluble human CTLA-4
T5 sequence (P16410 36-162 limits assumed): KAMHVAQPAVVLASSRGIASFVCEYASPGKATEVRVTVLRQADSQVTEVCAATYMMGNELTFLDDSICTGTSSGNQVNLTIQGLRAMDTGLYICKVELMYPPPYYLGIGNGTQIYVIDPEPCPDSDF

[5] = molecular target: T3, human CTLA4-Fc (R&D Systems); assay: by the legend: binding to immobilized recombinant hCTLA-4 protein as in FIG. 1E; the y axis reads 'IgG binding (geomean; x10^3)' [contd.) G]
[6] = molecular target: T3, human CTLA4-Fc (R&D Systems); assay: ligand-blocking ELISA: human CTLA4-Fc coated, antibody titrated, His-tagged rhCD80 added and detected with anti-His-HRP [contd.) G, panel hCD80]
[7] = molecular target: T3, human CTLA4-Fc (R&D Systems); assay: ligand-blocking ELISA: human CTLA4-Fc coated, antibody titrated, His-tagged rhCD86 added and detected with anti-His-HRP [contd.) G, panel hCD86]
[8] = molecular target: T5, human CTLA-4 protein (Sino Biological), …; assay: SPR (Biacore): antibody at 5 nM captured on immobilized anti-human Fc, human CTLA-4 protein injected at rising concentrations [contd.) C, upper panel]
[9] = molecular target: T3, human CTLA4-Fc (R&D Systems); assay: by the legend: binding to immobilized recombinant hCTLA-4 protein as in FIG. 1E; 4-E03 purified from BT-001-infected MIA PaCa-2 cells; the y axis reads 'IgG binding (geomean; x10^3)' [contd.) G]
[10] = molecular target: T6, mouse CTLA-4 on transfected cells (mouse, UniProt P09793 36-223); assay: flow cytometry on mCTLA-4-transfected cells, antibody titrated [contd.) I]
T6 construct: whole, on cells; also called mCTLA-4-transfected cells; mouse CTLA-4 transfected CHO cells

[11] = molecular target: T4, mouse CTLA4-Fc (Sino Biological); assay: ELISA, luminescence: mouse CTLA4-Fc coated, 5-B07 mIgG2a titrated in 3-fold steps [contd.) E]
[12] = molecular target: T4, mouse CTLA4-Fc (Sino Biological); assay: ligand-blocking ELISA: mouse CTLA4-Fc coated, antibody titrated, His-tagged mouse CD80 added and detected with anti-His-HRP [contd.) J, panel mCD80]
[13] = molecular target: T4, mouse CTLA4-Fc (Sino Biological); assay: ligand-blocking ELISA: mouse CTLA4-Fc coated, antibody titrated, His-tagged mouse CD86 added and detected with anti-His-HRP [contd.) J, panel mCD86]

T1 sequence (G7PL88 entry or part of it): as the sequence (P16410 36-161) above, with S14N, I18T, L106M counted along it

B1: ipilimumab (antibody, V domains shown)
VH: QVQLVESGGGVVQPGRSLRLSCAASGFTFSSYTMHWVRQAPGKGLEWVTFISYDGNNKYYADSVKGRFTISRDNSKNTLYLQMNSLRAEDTAIYYCARTGWLGPFDYWGQGTLVTVSS
VL: not shown
cmCTLA-4
  EC50 (read off the curve): ~0.2 nM

B2: 4-E03 hIgG1 (anti-human CTLA-4, human IgG1) (antibody, V domains shown)
VH: EVQLLESGGGLVQPGGSLRLSCAASGFTFSDYYMSWVRQAPGKGLEWVSGISWSSRDKGYADSVKGRFTISRDNSKNTLYLQMNSLRAEDTAVYYCTTDLARYWGQGTLVTVSS
VL: QSVLTQPPSASGTPGQRVTISCTGSSSNIGAGYDVHWYQQLPGTAPKLLIYGNDNRPSGVPDRFSGSKSGTSASLAISGLRSEDEADYYCAVWDDSLNGVVFGGGTKLTVLG
notes: Human IgG1 lambda, recombinant (HEK 293 EBNA); also called 4-E03 IgG1; anti-hCTLA-4 (4-E03)
cmCTLA-4
  EC50 (read off the curve): ~0.3 nM
[1]
  binding result: no binding (tested: about 20 nM)
[2]
  EC50 (read off the curve): ~0.3 nM
[3]
  binding result: binds
[4]
  Kd: 0.6 nM
[5]
  EC50 (read off the curve): ~6 nM
[6]
  IC50 (read off the curve): ~1 nM
[7]
  IC50 (read off the curve): ~0.4 nM
[8]
  Kd: 0.4 nM
[9]
  EC50 (read off the curve): ~4 nM

B3: 2-C06 (anti-human CTLA-4 antibody clone) (antibody, human IgG1, V domains shown)
VH: EVQLLESGGGLVQPGGSLRLSCAASGFTFSSYAMSWVRQAPGKGLEWVSGISGSGGYIHYADSVKGRFTISRDNSKNTLYLQMNSLRAEDTAVYYCATYSSGLHDAFDIWGQGTLVTVSS
VL: B2 VL with G52D, D54N, N55K, V92A, V100W
notes: Tested as human IgG1 (lambda light chain)
[6]
  IC50 (read off the curve): ~1 nM
[7]
  IC50 (read off the curve): ~0.4 nM

B4: 5-B07 mIgG2a (anti-mouse CTLA-4, mouse IgG2a) (antibody, V domains shown)
VH: EVQLLESGGGLVQPGGSLRLSCAASGFTFSSYSMNWVRQAPGKGLEWVSAISGSGGSTYYADSVKGRFTISRDNSKNTLYLQMNSLRAEDTAVYYCARDRVEMNQWLADWGQGTLVTVSS
VL: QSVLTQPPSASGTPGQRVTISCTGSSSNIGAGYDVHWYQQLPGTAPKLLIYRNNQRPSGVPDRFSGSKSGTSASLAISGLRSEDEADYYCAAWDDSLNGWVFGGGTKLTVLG
notes: The protein in the assay lacks the signal peptide; also called anti-mCTLA-4 (5-B07); mouse surrogate antibody 5-B07 mIgG2a
[10]
  EC50 (read off the curve): ~0.8 µg/mL
[11]
  EC50 (read off the curve): ~0.7 nM
[12]
  IC50 (read off the curve): ~2 nM
[13]
  IC50 (read off the curve): ~0.6 nM
